Results reported in PMC10238197, “Deafness‐Associated ADGRV1 Mutation Impairs USH2A Stability through Improper Phosphorylation of WHRN and WDSUB1 Recruitment” (Advanced Science, 2023).

B1: Flag-WHRN (wild type) [mouse] / GFP-WDSUB1 (WD repeat, SAM, and U-box domain-containing protein 1) [mouse] (parent)
chain 1: MNAQLDGLSVSSSSTGSLGSAAAAAGGGGGAGLRLLSANVRQLHQALTALLSEPEREQFTHCLNAYHARRNVFDLVRTLRVLLDSPVKRRLLPMLRLVIPRSDQLLFDQYTAEGLYLPATTPYRQPAWAAPDGAGPGEVRLVSLRRAKAHEGLGFSIRGGSEHGVGIYVSLVEPGSLAEKEGLRVGDQILRVNDKSLARVTHAEAVKALKGSKKLVLSVYSAGRIPGGYVTNHIYTWVDPQGRSTSPPSSLPQPHGSTLRQREDDRRSTLHLLQSGDEKKVNLVLGDGRSLGLTIRGGAEYGLGIYITGVDPGSEAESSGLKVGDQILEVNGRSFLNILHDEAVKLLKSSRHLILTVKDVGRLPHARTTVDQTKWIASSRIGESVANSAGFPGDHTEEGTSKPGFYKGPAGSQVTLSSLGNQTRALLDDQARHLLTEQERATMMYYLAQYRGGTISVEAMVMALFELLNTHAKFSLLSEVRSIISPQDLDRFDHLVLRREIESMKARQPPGPGVGDTYSMVSYSDTGSSTGSHGTSTTVSSARERLLWLIDLMENTLDLEGTGETTQGSTNALPDVSVDDVKSPSEDLPGIKPPPPPPPLAQGHDRLLGQPRKPGREDPAPLSSAAHSGIVFSAPRNRSPPPGTAPTPGPSSAQDSPSSPIYASISHANPSSRKPLDTHLALVNQHPIGPFPRVQSPPHLKSPPAETPGAGACLPPPSPSEHPDAVGANQHFVLVEVHRPDSEPDVNEVRALPQTRTASTLSQLSDSGQTLSEDSGVDAGETEASTSGRGRQTASAKNKNGKEQPRTERTAEGANKPPGLLEPTSTLVRVRKSAATLGIAIEGGANTRQPLPRIVTIQRGGSAHNCGQLKVGHVILEVNGQTLRGKEHKEAARIIAEAFKTKERDYIDFLVTEFNVML
chain 2: MVRLIHTLADHGDDVSCCAFSAALLATCSLDKTIRLYSLSDFAELPYSPLKFHTYAVHCCCFSPSGHVLASCSTDGTTVLWSSHSGHTLTVLEQPGGSPVRVCCFSPDSAYLASGAADGSIALWNAQTYKLYRCGSVKDSSLVACAFSPDGGLFVTGSSGGDLTVWDDRMRCLHSEKAHDLGITCCSFSSQPLSGGEGLQSYQLASCGQDCEIKLWAVTITRVLGFELKYKSTLSGHCAPVLACAFSHDGKMLASGSVDKSVIIHGIGPQSVLHTLTQHTRYVTTCAFAPNTLLLATGSMDKTVNIWQFDLETPCQGSMNDPLKHFTEEWSEEDVSVWLRAQGLEDLVGIFRANNIDGKELLHLTKESLAGDLKIESLGLRSKVLRSIEELRAKMDSLSSGIPDEFICPITRELMKDPVIASDGYSYEREAMESWIHKKKRTSPMTNLALPSLVLTPNRTLKMAINRWLETHEK

Variants of: B1
Assay: co-immunoprecipitation (band intensity quantified)
Conditions: with GFP-WDSUB1 (WD repeat, SAM, and U-box domain-containing protein 1) [mouse]; HEK293 cells; n = 3; parent: 1; read off a plot

chain 1 S37E and chain 1 S85E are the same in ratio to parent: 1 for the first, 1 for the second.

Going from chain 1 S156E to chain 1 S156E S246E, the ratio to parent rises from 1.8 to 2.6.

Compared with chain 1 S246E, chain 1 S384E is lower in ratio to parent: 2.1 for the first, 1 for the second.
